Experimental data as given in patent publication US9120851B2, “Human antibodies to human angiopoietin-like protein 4” (Regeneron Pharmaceuticals, Inc., priority 2009, dated 2015).

T1: hANGPTL3-His (Homo sapiens, UniProt Q9Y5C1)
T1 construct: His; purchased R&D Systems 3829-AN
T1 sequence (Q9Y5C1 17-460): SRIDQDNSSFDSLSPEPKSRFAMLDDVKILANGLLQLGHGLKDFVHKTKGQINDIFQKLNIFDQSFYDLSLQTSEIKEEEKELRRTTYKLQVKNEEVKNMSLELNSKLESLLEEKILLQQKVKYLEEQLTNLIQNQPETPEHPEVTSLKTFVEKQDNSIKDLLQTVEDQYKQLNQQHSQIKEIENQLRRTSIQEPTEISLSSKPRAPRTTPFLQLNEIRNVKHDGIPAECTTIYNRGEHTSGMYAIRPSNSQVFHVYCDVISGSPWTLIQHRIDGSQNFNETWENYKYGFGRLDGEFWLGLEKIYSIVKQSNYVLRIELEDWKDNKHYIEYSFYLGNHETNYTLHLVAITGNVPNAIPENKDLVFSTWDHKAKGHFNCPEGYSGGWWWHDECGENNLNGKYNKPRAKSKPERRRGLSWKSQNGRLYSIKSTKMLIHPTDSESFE

T2: hANGPTL4-His (Homo sapiens, UniProt Q9BY76)
T2 construct: purchased R&D Systems 4487-AN
T2 sequence (Q9BY76 26-406): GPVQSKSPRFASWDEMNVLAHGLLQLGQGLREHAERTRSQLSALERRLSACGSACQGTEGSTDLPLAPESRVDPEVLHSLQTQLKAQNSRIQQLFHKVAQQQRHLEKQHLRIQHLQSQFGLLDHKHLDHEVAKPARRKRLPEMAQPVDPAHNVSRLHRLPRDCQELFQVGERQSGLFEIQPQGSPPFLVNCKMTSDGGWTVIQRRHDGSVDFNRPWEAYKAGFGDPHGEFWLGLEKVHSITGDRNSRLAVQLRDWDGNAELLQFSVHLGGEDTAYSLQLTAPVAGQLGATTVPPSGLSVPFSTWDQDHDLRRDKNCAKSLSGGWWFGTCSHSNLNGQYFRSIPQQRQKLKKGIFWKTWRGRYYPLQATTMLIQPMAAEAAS

T3: hANGPTL4 peptide (R34-L66 of SEQ ID NO:476) (Homo sapiens, UniProt Q9BY76)
T3 sequence (Q9BY76 34-66 limits assumed): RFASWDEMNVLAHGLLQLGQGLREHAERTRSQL


Key:
Format in all cases: binding
hANGPTL4(26-148)-mFc [1] = target: T4, hANGPTL4(26-148)-mFc (Homo sapiens, UniProt Q9BY76); experiment: BIACORE, full mAb or Fab over anti-mFc captured hANGPTL4(26-148)-mFc
T4 construct: amino acid residues 26-148 of human ANGPTL4 fused in-line to mouse IgG2a (hANGPTL4-mFc)
T4 sequence (Q9BY76 with tags, fused parts or gaps): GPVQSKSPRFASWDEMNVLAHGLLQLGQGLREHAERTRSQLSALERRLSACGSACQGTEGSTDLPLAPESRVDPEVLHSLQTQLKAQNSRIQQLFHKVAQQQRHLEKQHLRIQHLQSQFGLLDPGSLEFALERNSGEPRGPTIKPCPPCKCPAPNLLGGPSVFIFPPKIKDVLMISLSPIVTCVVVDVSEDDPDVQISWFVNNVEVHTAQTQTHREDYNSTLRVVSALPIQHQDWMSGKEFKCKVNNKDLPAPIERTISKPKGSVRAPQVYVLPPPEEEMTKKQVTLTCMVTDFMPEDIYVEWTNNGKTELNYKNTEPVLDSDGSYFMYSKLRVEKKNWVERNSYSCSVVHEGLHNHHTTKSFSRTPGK
Description: Briefly, various concentrations (3.125 nM-100 nM) of anti-hANGPTL4 antibodies (i.e., H1H268 Fab, entire H1H268 mAb, H1H284 Fab, and entire H1H284 mAb) were injected over a low density anti-mFc captured hANGPTL4(26-148)-mFc (˜68±4 RU) surface, or the surface of amino-coupled hANGPTL4(26-406)-His (R&D Systems) (450 RU) or amino-coupled cynomolgus monkey N-terminal region (amino acid residues 1-130 of SEQ ID NO:490) expressed with an C-terminal hexa-histidine tag (MfANGPTL4(1-130)-His) (1,028 RU). Kinetic analysis was performed to measure ka and kd, and KD values and half-life of antigen/antibody complex dissociation were calculated. The results are shown in Table 4 (H1H268P) and Table 5 (H1H284P).

hANGPTL3-His = target: T1, hANGPTL3-His; experiment: BIACORE cross-reactivity, amine coupled hANGPTL3-His; conditions: for Specific RU, hANGPTL3-His: chip surface 5228 RU, mAb injected at 3.125-50 μg/mL
Description: (§1) Possible cross-reactivity of the anti-hANGPTL4 antibodies to related proteins, i.e., hANGPTL3, human angiopoietin-like protein 5 (hANGPTL5) and mouse ANGPTL4 (mANGPTL4), was tested for the selected antibodies, i.e., H1H268P and H1H284P, using the BIACORE™ system. Briefly, anti-hANGPTL4 antibodies as well as negative controls, i.e., two monoclonal antibodies (Control a and Control b) that are non-binders to any ANGPTL proteins, were injected at 3.125 μg/mL-50 μg/mL over amine coupled chip surfaces of hANGPTL3-His (R&D Systems, cat #3829-AN) at 5228 RU, hANGPTL4-His (R&D Systems, cat #4487-AN) at 6247 RU, hANGPTL5-His (Abnova Corp., cat #H00253935-P01) at 5265 RU, and mANGPTL4-His [R26-S410 of mANGPTL4 (SEQ ID NO: 478) fused with an AS linker to a C-terminal 6-histidine tag] at 5233 RU, respectively. A polyclonal antibody specific for hANGPTL3 (R&D System, cat #BAF3485) was also tested.

hANGPTL4-His = target: T2, hANGPTL4-His; experiment: BIACORE cross-reactivity, amine coupled hANGPTL4-His; conditions: for Specific RU, hANGPTL4-His: chip surface 6247 RU, mAb injected at 3.125-50 μg/mL
Description: as §1

hANGPTL5-His = target: T5, hANGPTL5-His (Homo sapiens, UniProt Q86XS5); experiment: BIACORE cross-reactivity, amine coupled hANGPTL5-His; conditions: for Specific RU, hANGPTL5-His: chip surface 5265 RU, mAb injected at 3.125-50 μg/mL
T5 construct: His; purchased Abnova Corp. H00253935-P01
T5 sequence (Q86XS5 26-388): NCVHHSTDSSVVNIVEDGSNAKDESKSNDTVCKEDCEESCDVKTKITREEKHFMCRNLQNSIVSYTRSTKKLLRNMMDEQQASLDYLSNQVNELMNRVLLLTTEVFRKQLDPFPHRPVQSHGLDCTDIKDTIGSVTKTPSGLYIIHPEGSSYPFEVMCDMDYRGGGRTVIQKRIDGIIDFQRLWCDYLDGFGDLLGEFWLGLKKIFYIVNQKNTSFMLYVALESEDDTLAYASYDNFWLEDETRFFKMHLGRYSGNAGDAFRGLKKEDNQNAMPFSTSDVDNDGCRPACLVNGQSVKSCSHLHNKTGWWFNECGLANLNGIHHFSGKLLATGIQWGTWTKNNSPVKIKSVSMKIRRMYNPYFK
Description: as §1

[2] = target: T3, hANGPTL4 peptide (R34-L66 of SEQ ID NO:476); experiment: BIACORE, hANGPTL4 peptides injected over captured antibody; conditions: for ka: 62.5 nM-500 nM
Description: Further, the binding affinities of H1H268P and H1H284P for various ANGPTL3 and ANGPTL4 peptides were also determined by BIACORE™ system. Briefly, H1H268P (1348±11 RU) and H1H284P (868±13 RU) were captured over anti-human Fc surface and various concentrations (62.5 nM-500 nM) of the hANGPTL3 and hANGPTL4 peptides were injected. The peptides tested were hANGPTL4 (R34-L66 of SEQ ID NO:476), N-terminally biotinylated hANGPTL4 (R34-L66 of SEQ ID NO:476), hANGPTL3 (R36-I68 of SEQ ID NO:485), and N-terminally biotinylated hANGPTL3 (R36-I68 of SEQ ID NO:485). Kinetic analysis was performed to measure ka and kd, and KD values and half-life of antigen/antibody complex dissociation were calculated. NB: No binding under the experimental conditions described.

hANGPTL4(26-148)-mFc [3] = target: T4, hANGPTL4(26-148)-mFc; experiment: BIACORE, full mAb or Fab over anti-mFc captured hANGPTL4(26-148)-mFc; remark: listed apart in the source
[4] = hANGPTL4 peptide (not biotinylated)
[5] = pH 5.75, 25° C., antigen captured 27 ± 0.6 RU
[6] = pH 7.2, 25° C., antigen captured 35 ± 1.9 RU

Row | Molecule | ka (hANGPTL4(26-148)-mFc [1]; pH 5.75, 25° C.) [M⁻¹ s⁻¹] | kd (hANGPTL4(26-148)-mFc [1]; pH 5.75, 25° C.) [s⁻¹] | ka (hANGPTL4(26-148)-mFc [1]; pH 7.2, 25° C.) [M⁻¹ s⁻¹] | kd (hANGPTL4(26-148)-mFc [1]; pH 7.2, 25° C.) [s⁻¹] | binding to hANGPTL3-His (other related ANGPTL protein), in words (hANGPTL3-His) | Specific RU, hANGPTL3-His (hANGPTL3-His) [RU] | binding to hANGPTL4-His, in words (hANGPTL4-His) | Specific RU, hANGPTL4-His (hANGPTL4-His) [RU] | binding to hANGPTL5-His (other related ANGPTL protein), in words (hANGPTL5-His) | Specific RU, hANGPTL5-His (hANGPTL5-His) [RU] | kd ([2]; hANGPTL4-Nterm biotin peptide) [s⁻¹] | ka ([2]; hANGPTL4-Nterm biotin peptide) [M⁻¹ s⁻¹] | kd [2, 4] [s⁻¹] | ka [2, 4] [M⁻¹ s⁻¹] | Response bound at 50 nM mAb or Fab (RU) (hANGPTL4(26-148)-mFc [3]; [5]) | Response bound at 50 nM mAb or Fab (RU) (hANGPTL4(26-148)-mFc [3]; [6]) | binding to the hANGPTL4 peptides, in words ([2]; both peptides, highest peptide concentration tested 500 nM)
1 | H1H268P: anti-hANGPTL4 antibody, hIgG1 isotype, HCVR/LCVR SEQ ID NOs 42/44 (antibody, V domains shown) VH: QVQLQESGAGLLKPSETLSLTCTVYGGSFSIHHWTWIRHPPGKGLEWIGEINHRGSTNYNPSLKSRVTISIDTSKNQFSLKLSAVTAADTAVYYCARGLRFLDWLSSYFDYWGQGTLVTVSS VL: DIQMTQSPSSLSASVGDRVTITCRASQGISDYLAWYQQKPGKVPNLLIYAASALQSGVPSRFSGSGSGTDFTLTISSLQPEDVATYYCQNYNTAPLTFGGGTKVEIK | 628000 | 0.000138 | 153000 | 9.59e-05 | did not bind | −17 | bound specifically | 768 | did not bind | −16 | 0.000294 | 4530 | 0.000365 | 6490 | 77 | 40 | 
2 | H1H284P: anti-hANGPTL4 antibody, hIgG1 isotype, HCVR/LCVR SEQ ID NOs 90/92 (antibody, V domains shown) VH: QVQLVESGGGVVQPGRSLRLSCAASGFTFSSYGMHWVRQAPGKGLEWMAVISFDGGNKNNADSVKGRFTISRDNSKNTLYLQMNSLRAEDTAVYYCAKEGDRSGHPYFYYYGLDVWGQGTTVTVS VL: DIQLTQSPSFLSASVGDRVTITCWASQGISSYLAWYQQKPGKAPKLLIYAASTLQSGVPSRFSGSGSETEFTLTISSLQPEDFATYYCQQLHSYPLTFGGGTKVEIK | 1.09e+06 | 8.91e-05 | 274000 | 5.36e-05 | did not bind | −6 | bound specifically | 1351 | did not bind | −13 |  |  |  |  | 171 | 99 | did not bind
